Results as given in publication PMC8329863 (Acta Crystallographica. Section D, Structural Biology, 2021).

Tests used:
VanRSc = biological target: T1, VanRSc (Streptomyces coelicolor, UniProt Q8CJW1); settings: BeF3- formed from BeSO4 and NaF; Mg2+ present; phosphomimetic bound to Asp51 in the receiver domain; crystals at pH 7, room temperature
T1 construct: gene SCO3590

[1] = biological target: full-length VanR from Streptomyces coelicolor, activated state (beryllium fluoride bound at Asp51) (Streptomyces coelicolor); assay: crystal structure; activated VanRSc co-crystallized with beryllium fluoride, microbatch under oil, 2.5 M NaCl, 0.1 M Tris pH 7, 0.2 M MgCl2, room temperature; monomer in the asymmetric unit, dimer by crystal symmetry
[2] = biological target: T2, full-length VanR from Streptomyces coelicolor, inactive (unphosphorylated) state (Streptomyces coelicolor); assay: AUC; sedimentation equilibrium, 4°C, 18 000, 20 000 and 22 000 rev/min, without beryllium fluoride; global fit, monomer-dimer model (dimer to monomers); settings: both partners purified
T2 chain: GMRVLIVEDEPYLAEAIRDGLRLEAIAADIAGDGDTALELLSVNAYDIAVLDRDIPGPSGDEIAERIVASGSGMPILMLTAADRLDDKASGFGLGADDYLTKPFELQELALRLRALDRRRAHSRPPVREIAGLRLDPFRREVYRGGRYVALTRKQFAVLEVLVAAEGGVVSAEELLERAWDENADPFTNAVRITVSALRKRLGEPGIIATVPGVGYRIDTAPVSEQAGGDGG

[3] = biological target: T2, full-length VanR from Streptomyces …; assay: AUC; sedimentation velocity, 20°C, 50 mM Tris pH 7.5, 50 mM NaCl, 10 mM MgCl2, without beryllium fluoride; 36.5 µM monomer; monomer-dimer model (dimer to monomers); settings: both partners purified

Q: With `[F][Be-]([F])[F]` [beryllium fluoride] as the molecule, how does the “X-ray crystallography, 2.03 A co-crystal structure” value (VanRSc) read?
A: The Be atom is bound to one of the carboxylate O atoms of Asp51

Q: With “full-length VanR from Streptomyces coelicolor, activated state (beryllium fluoride bound at Asp51) (natural protein)” as the molecule, how does the stoichiometry N [1] read?
A: 2

B1: full-length VanR from Streptomyces coelicolor, inactive (unphosphorylated) state (natural protein)
chain: GMRVLIVEDEPYLAEAIRDGLRLEAIAADIAGDGDTALELLSVNAYDIAVLDRDIPGPSGDEIAERIVASGSGMPILMLTAADRLDDKASGFGLGADDYLTKPFELQELALRLRALDRRRAHSRPPVREIAGLRLDPFRREVYRGGRYVALTRKQFAVLEVLVAAEGGVVSAEELLERAWDENADPFTNAVRITVSALRKRLGEPGIIATVPGVGYRIDTAPVSEQAGGDGG
modifications: unphosphorylated at Asp51 (paper numbering; entity position 52), no beryllium fluoride; Mg2+ present (10 mM MgCl2 in AUC). Wild-type residues 1-231 plus the N-terminal Gly left after SUMO cleavage. …
Q: What does the source list for B1?
A: Kd [2]: 37 µM; Kd [3]: > 1000 µM
